In patent US20030207435A1:
Where a chain is given by its changes, count along the chain named. Names may count otherwise.

B1: wild-type human activated protein C, P04070 43-197; P04070 212-461 (enzyme)
light: ANSFLEELRHSSLERECIEEICDFEEAKEIFQNVDDTLAFWSKHVDGDQCLVLPLEHPCASLCCGHGTCIDGIGSFSCDCRSGWEGRFCQREVSFLNCSLDNGGCTHYCLEEVGWRRCSCAPGYKLGDDLLQCHPAVKFPCGRPWKRMEKKRSHL
heavy: LIDGKMTRRGDSPWQVVLLDSKKKLACGAVLIHPSWVLTAAHCMDESKKLLVRLGEYDLRRWEKWELDLDIKEVFVHPNYSKSTTDNDIALLHLAQPATLSQTIVPICLPDSGLAERELNQAGQETLVTGWGYHSSREKEAKRNRTFVLNFIKIPVVPHNECSEVMSNMVSENMLCAGILGDRQDACEGDSGGPMVASFHGTWFLVGLVSWGEGCGLLHNYGVYTKVSRYLDWIHGHIRDKEAPQKSWAP
modifications: here or on the partner: Asn-linked carbohydrate at three sites; vitamin K-dependent gamma-carboxylation of nine glutamic acid residues within the amino-terminal 45 residues (gla-domain); one erythro-beta-hydroxy-Asp; Asn-linked carbohydrate
B2: activated human protein C derivative S11G:Q32E:N33D:L194S:T254S, P04070 43-197; P04070 212-461 (enzyme)
light: B1 light with S11G, Q32E, N33D
heavy: B1 heavy with L25S, T85S
modifications: here or on the partner: Asn-linked oligosaccharides; gamma-carboxy-glutamates in the gla-domain; one erythro-beta-hydroxy-Asp; Asn-linked oligosaccharide
B3: activated human protein C derivative S11G:Q32E:N33D:L194S, P04070 43-197; P04070 212-461 (enzyme)
light: B1 light with S11G, Q32E, N33D
heavy: B1 heavy with L25S
modifications: here or on the partner: Asn-linked oligosaccharides; gamma-carboxy-glutamates in the gla-domain; one erythro-beta-hydroxy-Asp; Asn-linked oligosaccharide
B4: activated human protein C derivative H10Q:S11G:Q32E:N33D:L194S:T254S, P04070 43-197; P04070 212-461 (enzyme)
light: B1 light with H10Q, S11G, Q32E, N33D
heavy: B1 heavy with L25S, T85S
modifications: here or on the partner: Asn-linked oligosaccharides; gamma-carboxy-glutamates in the gla-domain; one erythro-beta-hydroxy-Asp; Asn-linked oligosaccharide
B5: activated human protein C derivative H10Q:S11G:Q32E:N33D:L194S, P04070 43-197; P04070 212-461 (enzyme)
light: B1 light with H10Q, S11G, Q32E, N33D
heavy: B1 heavy with L25S
modifications: here or on the partner: Asn-linked oligosaccharides; gamma-carboxy-glutamates in the gla-domain; one erythro-beta-hydroxy-Asp; Asn-linked oligosaccharide

target: serpins of normal human plasma; assay: cell-based or functional assay

Inactivation in Plasma (t1/2 Relative to wt), Human (x (relative to wt))	Binder
1	B1
13	B2
5.8	B3
8.5	B4
5.9	B5

target: serpins of rabbit plasma; assay: cell-based or functional assay

Inactivation in Plasma (t1/2 Relative to wt), Rabbit (x (relative to wt))	Binder
1	B1
> 20	B2
8.5	B3
> 20	B4
8.5	B5
